# Data as given in US20250289905A1 (MIRIMGENE, published 2025).
# T1: human WARS1 recombinant protein (human, UniProt P23381 2-471, limits assumed)
# T1 construct: Recombinant protein, detected with an anti-His tag antibody; In the western blot also secreted WARS1 from THP-1 supernatant and human serum; also called human-derived WARS1 recombinant protein
# T1 sequence: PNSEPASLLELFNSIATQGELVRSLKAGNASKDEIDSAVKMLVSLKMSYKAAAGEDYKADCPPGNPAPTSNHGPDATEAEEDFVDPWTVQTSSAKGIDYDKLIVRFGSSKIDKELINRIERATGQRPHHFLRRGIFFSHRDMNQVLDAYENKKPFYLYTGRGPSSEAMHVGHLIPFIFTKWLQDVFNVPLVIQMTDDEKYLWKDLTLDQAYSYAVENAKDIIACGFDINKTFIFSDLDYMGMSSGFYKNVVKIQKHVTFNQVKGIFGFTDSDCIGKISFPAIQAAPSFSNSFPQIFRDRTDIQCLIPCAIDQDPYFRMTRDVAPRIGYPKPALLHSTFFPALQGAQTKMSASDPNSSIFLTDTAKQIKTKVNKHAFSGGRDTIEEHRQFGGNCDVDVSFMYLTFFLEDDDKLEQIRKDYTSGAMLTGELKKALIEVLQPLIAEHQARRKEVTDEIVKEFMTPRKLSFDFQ
# T2: mouse-derived WARS1 recombinant protein (mouse, UniProt P32921 1-481, limits assumed)
# T2 construct: Recombinant, His-tagged (detected with anti-His tag antibody); construct not described; In the western blot also secreted WARS1 from J774A.1 supernatant and mouse serum; also called mouse WARS1
# T2 sequence (looked up): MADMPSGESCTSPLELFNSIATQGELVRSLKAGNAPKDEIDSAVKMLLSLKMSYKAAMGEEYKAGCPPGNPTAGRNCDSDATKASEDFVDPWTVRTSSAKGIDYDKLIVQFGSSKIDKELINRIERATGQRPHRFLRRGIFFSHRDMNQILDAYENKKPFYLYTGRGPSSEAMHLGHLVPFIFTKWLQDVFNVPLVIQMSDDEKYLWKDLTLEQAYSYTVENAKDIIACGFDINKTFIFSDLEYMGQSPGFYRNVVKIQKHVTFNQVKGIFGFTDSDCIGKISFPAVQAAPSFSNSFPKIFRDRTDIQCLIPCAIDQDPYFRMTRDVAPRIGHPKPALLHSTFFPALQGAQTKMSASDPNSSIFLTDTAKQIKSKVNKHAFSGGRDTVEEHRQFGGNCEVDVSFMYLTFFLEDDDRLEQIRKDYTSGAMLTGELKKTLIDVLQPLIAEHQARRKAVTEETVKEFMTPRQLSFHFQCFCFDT
# T3: rat-derived WARS1 recombinant protein (rat, UniProt Q6P7B0 1-481, limits assumed)
# T3 construct: Recombinant, His-tagged (detected with anti-His tag antibody); construct not described; also called rat WARS1
# T3 sequence (looked up): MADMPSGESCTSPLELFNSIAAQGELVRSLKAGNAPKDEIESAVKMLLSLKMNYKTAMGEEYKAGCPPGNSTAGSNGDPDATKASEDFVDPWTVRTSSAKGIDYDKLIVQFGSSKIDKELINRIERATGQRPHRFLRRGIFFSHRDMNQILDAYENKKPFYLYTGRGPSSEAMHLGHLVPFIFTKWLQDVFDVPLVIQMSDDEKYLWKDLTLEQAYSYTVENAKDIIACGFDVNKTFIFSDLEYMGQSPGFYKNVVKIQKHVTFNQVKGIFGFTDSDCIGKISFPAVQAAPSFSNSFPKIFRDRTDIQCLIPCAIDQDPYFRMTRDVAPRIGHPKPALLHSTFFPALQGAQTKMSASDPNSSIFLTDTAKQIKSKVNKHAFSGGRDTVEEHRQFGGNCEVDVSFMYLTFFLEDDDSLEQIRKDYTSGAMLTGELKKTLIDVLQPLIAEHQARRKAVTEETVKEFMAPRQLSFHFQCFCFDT
# B1: SHL/QLN (antibody, V domains shown)
# VH: EVQLLESGGGLVQPGGSLRLSCAASGFTFSSYDMSWVRQAPGKGLEWVSAISSGGSSIYYADSVKGRFTISRDNSKNTLYLQMNSLRAEDTAVYYCARDVAWDMLGDFDYWGQGTLVTVSS
# VL: QSVLTQPPSASGTPGQRVTISCTGSSSNIGSNYVYWYQQLPGTAPKLLIYANQLRPSGVPDRFSGSKSGTSASLAISGLRSEDEADYYCGAWDDSNSAYVFGGGTKLTVLT
# notes: L-CDR2 and L-CDR3 variant of GKB101; also called SHL/QLN antibody
# Experiments:
# [1] = molecular target: marmoset (NHP)-derived WARS1 recombinant protein (marmoset (NHP)) (UniProt U3CR73); assay: direct ELISA
# [2] = molecular target: T1, human WARS1 recombinant protein; assay: direct ELISA
# Description: (§1) Specifically, for direct ELISA, a 96-well plate (Maxisorp, Thermo Fisher) was coated with WARS1 having a 1 μg/ml concentration of a recombinant protein derived from human, marmoset (NHP), mouse, rat, and pig, and then blocked with PBS containing 1% BSA at room temperature for 1 hour. The GKB101 antibody or a variant antibody thereof was diluted in a concentration-dependent manner, added to each coated well, reacted at room temperature for 1 hour, and then washed four times with PBST (PBS+Tween20). Each well was treated and reacted for 1 hour with an antibody (anti-Human IgG, cell signaling) to which HRP is attached, and then washed with PBST. Lastly, after developing with a TMB substrate (BD), its absorbance was measured at 490 nm (NIVO) (FIGS. 4a to 5).
# [3] = molecular target: T2, mouse-derived WARS1 recombinant protein; assay: direct ELISA
# Description: as §1
# [4] = molecular target: T3, rat-derived WARS1 recombinant protein; assay: direct ELISA
# Description: as §1
# [5] = molecular target: T1, human WARS1 recombinant protein; assay: cell-based or functional assay
binder,measurement,setting,value
B1,Kd,[1],1 pM
same,Kd,[2],~1 pM
same,Kd,[3],~1 pM
same,Kd,[4],~1 pM
same,secretion of TNF-α in mouse macrophage J774A.1 cells,[5],≥ 40%
